# Results taken from patent publication US20220396819A1, “METHOD FOR PRODUCING PEPTIDE HAVING PHYSIOLOGICAL ACTIVITY, AND PEPTIDE COMPRISING SHORT LINKER” (priority 2019, published 2022).
# “Also recorded” adds a separate entry of the source. Positions of bridges follow the written chain, without caps; N, C: chain ends. No end group written: not given here.
# Key:
# [1] = target: T1, Met (Homo sapiens, UniProt P08581); assay: Met activation ability, SRE luciferase assay in HEK293E cells (HGF-Erk-SRE pathway); assay type: cell-based; settings: for Met activation ability: Example 37, cell-free translation solution diluted, FIG. 69
# T1 construct: endogenous in cells; host or cells: HEK293E
# Protocol: (§1) The Met activation ability of the HGF-PAS dimer peptide was evaluated by luciferase assay. To 25 μL of Opti-MEM medium (Thermo Fisher Scientific), 0.6 μL of Attractene Transfection Reagent (QIAGEN) was added, and the mixture was incubated at room temperature for 5 minutes. To the above mixed solution, a mixed solution of 25 μL of Opti-MEM and 1 μL of SRE reporter vector (QIAGEN) was added, and the mixture was incubated at room temperature for 20 minutes. This mixed solution was added to a 96-well plate, over which 40,000 cell/well HEK293E cells were seeded and incubated overnight in a 5% CO2 incubator at 37° C. After transfection, all culture supernatant was removed, 100 μL of Opti-MEM medium (evaluation basal medium) containing 0.5% FBS (Thermo Fisher Scientific), 1% non-essential amino acid solution (Thermo Fisher Scientific), and penicillin-streptomycin (Nacalai Tesque) was added, and incubation was performed at 37° C. for 4 hours, and thereby the cells were starved.
# To the evaluation basal medium, 0 to 200 ng/mL HGF was added, or 0 to 800 ng/mL AET-PAS-aMD4dY-PEG11, AET-PAS-aMD4-PEG11, or AET-PAS-aMD4-PEG3 was added, or a culture supernatant containing PAS-aMD4dY-PEG11, PAS-aMD4-PEG11, or PAS-aMD4-PEG3 was added so as to be diluted 10-fold with respect to the medium, and the evaluation basal medium was added in an amount of 100 μL to the cells. The cells were stimulated by culturing overnight in a 5% CO2 incubator at 37° C.
# The signal intensities were detected using Dual-Luciferase Reporter Assay System (Promega). The medium supernatant in an amount of 100 μL was removed, 50 μL of Glo reagent was added, and the cells were lysed for 10 minutes at room temperature. The luminescence of Firefly luciferase emitted from the cell lysate solution was detected with a plate reader to quantify the activation of the HGF-Erk-SRE pathway. Subsequently, 50 μL of Glo & Stop reagent solution was added, and after 10 minutes, the luminescence of the internal standard Renilla luciferase was detected to quantify the number of cells. The signal activity of each sample was quantified as SRE activity=(Firefly luciferase luminescence intensity)/(Renilla luciferase luminescence intensity). The relative signal activity values for the samples without addition of the evaluation compound were determined and used as relative receptor activity.
# as §1, with “peptide linker variant” for “peptide”, “0.6 L” for “0.6 μL”
# To the evaluation basal medium, 0 to 100 ng/mL HGF was added, or a culture supernatant containing AET-aMD4dY-PAS8, AET-aMD4dY-PAS22 (the same molecule as AET-PAS-aMD4dY-PEG11), AET-aMD4dY-PAS49, AET-aMD4dY-PAS100, AET-aMD4dY-PAS200, AET-aMD4dY-GS15, or AET-aMD4dY-GS22 was added to the medium so as to be diluted at a predetermined ratio, and the evaluation basal medium was added in an amount of 100 μL to the cells. The cells were stimulated by culturing overnight in a 5% CO2 incubator at 37° C.
# The Met activation ability of the stabilized HGF-PAS dimer peptide was evaluated by luciferase assay. […]
# [2] = target: T2, VEGFR (Homo sapiens, UniProt P35968); assay: VEGF inhibitory ability, luciferase assay in VEGFR/NFAT Reporter HEK293 cells; assay type: cell-based
# T2 construct: host or cells: VEGFR/NFAT Reporter HEK293 cells
# Protocol: The VEGF inhibitory ability of the VEGFR_D2-PAS heterodimer peptide was evaluated by luciferase assay. 40,000 cell/well VEGFR/NFAT Reporter HEK293 cells (BPS Bioscience) were seeded and incubated overnight in a 5% CO2 incubator at 37° C. The cells were incubated overnight in Assay medium (MEM medium (Nacalai Tesque), 1×MEM Non-Essential Amino Acids Solution (Thermo Fisher Scientific), 1 mM Sodium Pyruvate (Nacalai Tesque), 1% Penicillin-Streptomycin (Sigma Aldrich), and 0.3% FBS (Thermo Fisher Scientific)) to starvation. […] The cells were stimulated by culturing in a 5% CO2 incubator at 37° C. for 4 hours.
# One-Glo Luciferase Assay System (Promega) was used to detect the signal intensity. Medium supernatant in an amount of 50 μL was removed, 50 μL of One-Glo reagent was added, and the cells were lysed for 10 minutes at room temperature. The luminescence emitted from the cell lysate solution was detected with a Nivo plate reader (Perkin Elmer) to quantify the activation of the VEGFR-NFAT pathway, and the relative signal activity value for the sample without addition of evaluation compound was determined and used as relative receptor activity.
# The VEGF inhibitory ability of the cell-free expressed VEGFR_D2-PAS heterodimer peptide was evaluated by luciferase assay. 40,000 cell/well VEGFR/NFAT Reporter HEK293 cells (BPS Bioscience) were seeded and incubated overnight in a 5% CO2 incubator at 37° C. The cells were incubated overnight in Assay medium (MEM medium (Nacalai Tesque), 1×MEM Non-Essential Amino Acids Solution (Thermo Fisher Scientific), 1 mM Sodium Pyruvate (Nacalai Tesque), 1% Penicillin-Streptomycin (Sigma Aldrich), and 0.3% FBS (Thermo Fisher Scientific)) to starvation. To the Assay medium, 100 μL of 10 ng/mL human recombinant VEGF (R&D Systems) was added, and further, MAET-VEGFR_D2-PAS16, MAET-VEGFR_D2-PAS49-b, MAET-VEGFR_D2-PAS100-b, or a cell-free expression solution containing MAET-VEGFR_D2-GS16, or a cell-free expression solution with unexpressed peptide was added at a predetermined dilution factor, and 100 μL of the Assay medium was added to the cells. The cells were stimulated by culturing in a 5% CO2 incubator at 37° C. for 4 hours.
# The VEGF inhibitory ability of the VEGFR_D2-PAS heterodimer peptide linker variant was evaluated by luciferase assay. 40,000 cell/well VEGFR/NFAT Reporter HEK293 cells (BPS Bioscience) were seeded and incubated overnight in a 5% CO2 incubator at 37° C. The cells were incubated overnight in Assay medium (MEM medium (Nacalai Tesque), 1×MEM Non-Essential Amino Acids Solution (Thermo Fisher Scientific), 1 mM Sodium Pyruvate (Nacalai Tesque), 1% Penicillin-Streptomycin (Sigma Aldrich), and 0.3% FBS (Thermo Fisher Scientific)) to starvation. To the Assay medium, 10 ng/mL human recombinant VEGF (R&D Systems) was added, and further, a culture supernatant containing VEGFR_D2-PAS16, VEGFR_D2-PAS49, or VEGFR_D2-PAS100 at a predetermined concentration was added, and 100 μL of the Assay medium was added to the cells. The cells were stimulated by culturing in a 5% CO2 incubator at 37° C. for 4 hours. Note that VEGFR_D2-PAS16 was obtained according to the method described in Example 27.
# [3] = target: Met (HGF receptor) (UniProt P08581 25-1390, limits assumed); assay: cell-based or functional assay
# Sequence of Met (HGF receptor) (P08581 25-1390 limits assumed): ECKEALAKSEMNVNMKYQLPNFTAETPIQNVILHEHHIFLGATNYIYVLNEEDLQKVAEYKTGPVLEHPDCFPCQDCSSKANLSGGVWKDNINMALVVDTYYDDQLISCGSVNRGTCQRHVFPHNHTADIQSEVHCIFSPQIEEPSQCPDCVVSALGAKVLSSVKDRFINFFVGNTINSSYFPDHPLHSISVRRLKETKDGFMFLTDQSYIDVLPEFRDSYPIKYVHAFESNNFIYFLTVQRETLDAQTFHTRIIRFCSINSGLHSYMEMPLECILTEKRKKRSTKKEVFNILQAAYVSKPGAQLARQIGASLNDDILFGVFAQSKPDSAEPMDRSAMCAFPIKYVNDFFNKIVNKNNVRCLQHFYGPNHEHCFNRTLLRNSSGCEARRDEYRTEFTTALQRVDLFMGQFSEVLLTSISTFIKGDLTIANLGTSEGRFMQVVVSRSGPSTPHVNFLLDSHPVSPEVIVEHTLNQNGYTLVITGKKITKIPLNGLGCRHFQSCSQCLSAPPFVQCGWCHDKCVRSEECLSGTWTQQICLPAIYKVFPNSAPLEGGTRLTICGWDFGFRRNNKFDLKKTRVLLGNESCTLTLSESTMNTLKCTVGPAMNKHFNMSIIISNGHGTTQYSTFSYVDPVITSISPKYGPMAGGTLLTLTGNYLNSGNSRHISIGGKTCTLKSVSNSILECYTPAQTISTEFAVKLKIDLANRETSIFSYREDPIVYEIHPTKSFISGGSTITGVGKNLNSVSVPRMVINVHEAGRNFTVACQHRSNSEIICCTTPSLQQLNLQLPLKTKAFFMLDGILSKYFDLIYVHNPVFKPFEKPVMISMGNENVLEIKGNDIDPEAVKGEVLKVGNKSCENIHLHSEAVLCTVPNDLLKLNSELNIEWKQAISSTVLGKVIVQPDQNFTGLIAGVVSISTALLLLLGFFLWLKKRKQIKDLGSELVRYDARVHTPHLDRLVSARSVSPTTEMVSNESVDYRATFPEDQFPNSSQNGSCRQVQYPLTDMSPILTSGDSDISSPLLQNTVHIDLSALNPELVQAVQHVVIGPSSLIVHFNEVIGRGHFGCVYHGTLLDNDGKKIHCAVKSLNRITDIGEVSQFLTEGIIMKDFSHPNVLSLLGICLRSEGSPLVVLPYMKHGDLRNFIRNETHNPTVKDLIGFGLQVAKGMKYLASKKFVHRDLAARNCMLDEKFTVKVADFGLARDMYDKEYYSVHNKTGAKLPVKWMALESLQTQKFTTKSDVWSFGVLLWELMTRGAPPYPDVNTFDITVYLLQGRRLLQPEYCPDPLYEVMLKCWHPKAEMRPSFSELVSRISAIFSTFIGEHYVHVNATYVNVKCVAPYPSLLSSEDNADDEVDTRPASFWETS
# T1 sequence (P08581 25-1390): as the sequence (P08581 25-1390 limits assumed) above
# T2 sequence (P35968 20-1356): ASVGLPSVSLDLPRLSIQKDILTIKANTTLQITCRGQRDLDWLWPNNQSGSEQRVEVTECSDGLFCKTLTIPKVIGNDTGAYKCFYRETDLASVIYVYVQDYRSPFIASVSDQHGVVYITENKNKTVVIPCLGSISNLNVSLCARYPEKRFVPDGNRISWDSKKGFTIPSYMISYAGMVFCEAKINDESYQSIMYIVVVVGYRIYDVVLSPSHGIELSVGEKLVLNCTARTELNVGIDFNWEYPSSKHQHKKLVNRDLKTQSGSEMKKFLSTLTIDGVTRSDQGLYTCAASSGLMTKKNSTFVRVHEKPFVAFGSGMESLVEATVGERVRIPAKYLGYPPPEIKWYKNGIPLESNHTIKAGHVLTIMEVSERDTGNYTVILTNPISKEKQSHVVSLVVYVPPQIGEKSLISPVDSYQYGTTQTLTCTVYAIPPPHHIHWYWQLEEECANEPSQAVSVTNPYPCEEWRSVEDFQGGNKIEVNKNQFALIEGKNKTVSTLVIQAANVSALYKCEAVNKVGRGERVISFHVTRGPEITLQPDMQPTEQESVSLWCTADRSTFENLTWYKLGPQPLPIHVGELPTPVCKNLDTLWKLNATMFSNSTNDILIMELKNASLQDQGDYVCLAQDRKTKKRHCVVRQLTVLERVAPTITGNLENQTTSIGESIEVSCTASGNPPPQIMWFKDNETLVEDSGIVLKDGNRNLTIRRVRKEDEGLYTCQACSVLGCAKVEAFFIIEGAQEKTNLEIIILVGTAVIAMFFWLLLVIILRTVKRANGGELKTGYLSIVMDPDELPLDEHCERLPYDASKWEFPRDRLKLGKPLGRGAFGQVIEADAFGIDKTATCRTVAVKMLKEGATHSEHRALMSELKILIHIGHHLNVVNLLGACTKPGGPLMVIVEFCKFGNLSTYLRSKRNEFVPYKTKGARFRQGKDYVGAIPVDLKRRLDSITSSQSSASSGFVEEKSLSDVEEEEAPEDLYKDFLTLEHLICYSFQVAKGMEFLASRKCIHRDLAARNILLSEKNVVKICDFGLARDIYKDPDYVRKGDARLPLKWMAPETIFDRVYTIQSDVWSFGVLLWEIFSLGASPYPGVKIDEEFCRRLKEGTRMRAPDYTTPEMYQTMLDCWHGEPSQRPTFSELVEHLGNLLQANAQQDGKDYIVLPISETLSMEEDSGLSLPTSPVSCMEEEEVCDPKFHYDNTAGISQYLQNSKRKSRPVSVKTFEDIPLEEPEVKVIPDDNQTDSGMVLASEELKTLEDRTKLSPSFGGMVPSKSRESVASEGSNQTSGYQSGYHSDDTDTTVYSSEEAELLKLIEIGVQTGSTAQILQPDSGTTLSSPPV
molecule,measurement,setting,value
"CRQFNRRTHEVWNLDC (disulfide 1-16) [aMD4dY, reference compound]","signal activation ability, dimer versus monomer","[1]; Example 43, FIG. 76",showed no signal activation ability
"AETAGPTWCEDDWYYCWLFGTAAPAAPAPAAPAAPAPAAPAAPAPAAPAAPAPAAPAAPAPAAPAAPAPAVCWEDSWGGEVCWLFGT (disulfide 9-16, 72-82) [AET-VEGFR_D2-PAS49]",IC50,[2],1.43 nM
"MAETCRQFNRRTHEVWNLDCGAAPAAPAPGCRQFNRRTHEVWNLDC (disulfide 5-20, 31-46) [MAET-aMD4dY-PAS8]",Met activation ability,[1],had Met activation ability
"MAETAGPTWCEDDWYYCWLFGTAAPAAPAPAAPAAPAPVCWEDSWGGEVCWLFGT (disulfide 10-17, 40-50) [MAET-VEGFR_D2-PAS16]",VEGF inhibitory activity (relative VEGF activity),"[2]; Example 39, cell-free expression solution, 10 ng/mL VEGF, FIGS. 71 and 72",higher inhibitory activity than MAET-VEGFR_D2-PAS100-b; also recorded: higher inhibitory activity than MAET-VEGFR_D2-GS16
"MAETCRQFNRRTHEVWNLDCGAAPAAPAPAAPAAPAPAAPAAPGCRQFNRRTHEVWNLDC (disulfide 5-20, 45-60) [MAET-aMD4dY-PAS22]",Met activation ability,[1],had Met activation ability
"CRQFNRRTHEVWNLDCGAAPAAPAPAAPAAPAPAAPAAPGCRQFNRRTHEVWNLDC (disulfide 1-16, 41-56; also: PEG11) [PAS-aMD4dY-PEG11]",maximum activity compared with HGF,"[1]; Example 6, AET form 0 to 800 ng/mL, PAS form culture supernatant diluted 10-fold",comparable to 100 ng/mL HGF
"AETCRQFNRRTHEVWNLDCGAAPAAPAPGCRQFNRRTHEVWNLDC (disulfide 4-19, 30-45) [AET-aMD4dY-PAS8]",Emax (%),[3],56.4%
"AET-PAS-aMD4dY-PEG11 (disulfide 4-19, 44-59; also: PEG11 in name, stated same as AET-aMD4dY-PAS22) peptide: AETCRQFNRRTHEVWNLDCGAAPAAPAPAAPAAPAPAAPAAPGCRQFNRRTHEVWNLDC",Emax (%),[3],100%
AET-aMD4dY-PAS200 (two disulfide bonds in the molecule) peptide: AETCRQFNRRTHEVWNLDCGAAPAAPAPAAPAAPAPAAPAAPAPAAPAAPAPAAPAAPAPAAPAAPAPAAPAAPAPAAPAAPAPAAPAAPAPAAPAAPAPAAPAAPAPAAPAAPAPAAPAAPAPAAPAAPAPAAPAAPAPAAPAAPAPAAPAAPAPAAPAAPAPAAPAAPAPAAPAAPAPAAPAAPAPAAPAAPAPAAPAAPAPAAPAAPAPAAPAAPAPGCRQFNRRTHEVWNLDC,Emax (%),[3],20.4%
"MAETCYRQFNRRTHEVWNLDCGAAPAAPAPAAPAAPAPAAPAAPGCRQFNRRTHEVWNLDC (disulfide 5-21, 46-61) MAETCYRQFNRRTHEVWNLDCGAAPAAPAPAAPAAPAPAAPAAPGCRQFNRRTHEVWNLDC",Met activation ability,[1],had Met activation ability
"AET-aMD4dY-GS22 (disulfide 4-19, 44-59) peptide: AETCRQFNRRTHEVWNLDCGGGGGSGGGGSGGGGSGGGGSGGGCRQFNRRTHEVWNLDC",Emax (%),[3],32.3%
AET-aMD4dY-PAS49 (two disulfide bonds in the molecule) peptide: AETCRQFNRRTHEVWNLDCGAAPAAPAPAAPAAPAPAAPAAPAPAAPAAPAPAAPAAPAPAAPAAPAPAGCRQFNRRTHEVWNLDC,Emax (%),[3],82.8%
AETCRQFNRRTHEVWNLDCGAAPAAPAPAAPAAPAPAAPAAPGCRQFNRRTHEVWNLDCGAAPAAPAPAAPAAPAPAAPAAPGCRQFNRRTHEVWNLDC (AET-aMD4dY-PAS22-Trimer; DISULFID (4)..(19) Disulfid bridge between Cys-4 and Cys-19; DISULFID (44)..(59) Disulfid bridge between Cys-44 and Cys-59; DISULFID (84)..(99) Disulfid bridge between Cys-84 and Cys-99) AETCRQFNRRTHEVWNLDCGAAPAAPAPAAPAAPAPAAPAAPGCRQFNRRTHEVWNLDCGAAPAAPAPAAPAAPAPAAPAAPGCRQFNRRTHEVWNLDC,"signal activation ability, trimer versus dimer","[1]; Example 42, culture supernatant diluted, FIG. 75",signal activation ability similar to the dimer peptide
AET-aMD4dY-PAS100 (two disulfide bonds in the molecule) peptide: AETCRQFNRRTHEVWNLDCGAAPAAPAPAAPAAPAPAAPAAPAPAAPAAPAPAAPAAPAPAAPAAPAPAAPAAPAPAAPAAPAPAAPAAPAPAAPAAPAPAAPAAPAPAAPAAPAPAAPAGCRQFNRRTHEVWNLDC,Emax (%),[3],47.2%
"AET-aMD4dY-GS15 (disulfide 4-19, 37-52) peptide: AETCRQFNRRTHEVWNLDCGGGGGSGGGGSGGGGSGCRQFNRRTHEVWNLDC",Emax (%),[3],45.8%
